To fix the notation:
B1: Serine/threonine-protein phosphatase 5 (Mus musculus), Q60676 (parent)
chain: MAMAEGERTECAETPRDEPPADGTLKRAEELKTQANDYFKAKDYENAIKFYSQAIELNPGNAIYYGNRSLAYLRTECYGYALGDATRAIELDKKYIKGYYRRAASNMALGKFRAALRDYETVVKVKPNDKDAKMKYQECSKIVKQKAFERAIAGDEHRRSVVDSLDIESMTIEDEYSGPKLEDGKVTITFMKDLMQWYKDQKKLHRKCAYQILVQVKEVLCKLSTLVETTLKETEKITVCGDTHGQFYDLLNIFELNGLPSETNPYIFNGDFVDRGSFSVEVILTLFGFKLLYPDHFHLLRGNHETDNMNQIYGFEGEVKAKYTAQMYELFSEVFEWLPLAQCINGKVLIMHGGLFSEDGVTLDDIRKIERNRQPPDSGPMCDLLWSDPQPQNGRSVSKRGVSCQFGPDVTKAFLEENQLDYIIRSHEVKAEGYEVAHGGRCVTVFSAPNYCDQMGNKASYIHLQGSDLRPQFHQFTAVPHPNVKPMAYANTLLQLGMM
partner: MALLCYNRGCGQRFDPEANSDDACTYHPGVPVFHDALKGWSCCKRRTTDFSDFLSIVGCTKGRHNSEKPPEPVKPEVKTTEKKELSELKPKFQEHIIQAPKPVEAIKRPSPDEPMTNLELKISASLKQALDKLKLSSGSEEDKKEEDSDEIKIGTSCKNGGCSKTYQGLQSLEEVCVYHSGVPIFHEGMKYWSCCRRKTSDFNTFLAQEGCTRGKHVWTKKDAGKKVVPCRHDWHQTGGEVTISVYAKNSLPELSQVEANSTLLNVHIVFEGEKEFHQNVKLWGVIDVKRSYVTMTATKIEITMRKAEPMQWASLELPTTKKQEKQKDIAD

In the first assay the parent is B1. Conditions: with chrd1_mouse Chordc1, Q9D1P4.
For the variant MAMAEGERTECAETPRDEPPADGTLKRAEELKTQANDYFKAKDYENAIKFYSQAIELNPGNAIYYGNRSLAYLRTECYGYALGDATRAIELDKKYIKGYYARAASNMALGKFRAALRDYETVVKVKPNDKDAKMKYQECSKIVKQKAFERAIAGDEHRRSVVDSLDIESMTIEDEYSGPKLEDGKVTITFMKDLMQWYKDQKKLHRKCAYQILVQVKEVLCKLSTLVETTLKETEKITVCGDTHGQFYDLLNIFELNGLPSETNPYIFNGDFVDRGSFSVEVILTLFGFKLLYPDHFHLLRGNHETDNMNQIYGFEGEVKAKYTAQMYELFSEVFEWLPLAQCINGKVLIMHGGLFSEDGVTLDDIRKIERNRQPPDSGPMCDLLWSDPQPQNGRSVSKRGVSCQFGPDVTKAFLEENQLDYIIRSHEVKAEGYEVAHGGRCVTVFSAPNYCDQMGNKASYIHLQGSDLRPQFHQFTAVPHPNVKPMAYANTLLQLGMM [R101A], the “effect of a mutation on the interaction” value is “disrupting interaction”.

Variants of B1 are the subject of a further assay. The note with it: with chrd1_mouse Chordc1, Q9D1P4. This is another data set of the same source.
MAMAEGERTECAETPRDEPPADGTLKRAEELATQANDYFKAKDYENAIKFYSQAIELNPGNAIYYGNRSLAYLRTECYGYALGDATRAIELDKKYIKGYYRRAASNMALGKFRAALRDYETVVKVKPNDKDAKMKYQECSKIVKQKAFERAIAGDEHRRSVVDSLDIESMTIEDEYSGPKLEDGKVTITFMKDLMQWYKDQKKLHRKCAYQILVQVKEVLCKLSTLVETTLKETEKITVCGDTHGQFYDLLNIFELNGLPSETNPYIFNGDFVDRGSFSVEVILTLFGFKLLYPDHFHLLRGNHETDNMNQIYGFEGEVKAKYTAQMYELFSEVFEWLPLAQCINGKVLIMHGGLFSEDGVTLDDIRKIERNRQPPDSGPMCDLLWSDPQPQNGRSVSKRGVSCQFGPDVTKAFLEENQLDYIIRSHEVKAEGYEVAHGGRCVTVFSAPNYCDQMGNKASYIHLQGSDLRPQFHQFTAVPHPNVKPMAYANTLLQLGMM [K32A]: the “effect of a mutation on the interaction” value is “disrupting interaction”.

Source of the values: IntAct's records for PubMed 16083881.
